The experiment concerns the target CD16 on CD16-transfected BW cells (FcγRIIIA-transfected BW cell line) (UniProt P08637). In words: FACS on BW-CD16 cells.

Results on 1 substance are retold here after US20190048076A1.

Sequence of UniProt P08637 (P08637 17-254 limits assumed): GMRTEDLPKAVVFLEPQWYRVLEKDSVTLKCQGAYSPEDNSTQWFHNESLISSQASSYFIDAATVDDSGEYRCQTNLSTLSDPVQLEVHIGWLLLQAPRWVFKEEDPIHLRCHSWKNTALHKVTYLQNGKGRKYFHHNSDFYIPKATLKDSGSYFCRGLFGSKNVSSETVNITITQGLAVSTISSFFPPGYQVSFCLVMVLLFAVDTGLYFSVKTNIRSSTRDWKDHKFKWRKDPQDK

Consider “rituximab (intact, undigested) (antibody)”, for which the binding percentage was determined as 99.8%.
